In brackets after ≈: the same amount, converted by molar mass. Several values for one entry are separate records, joined by “and”; a condition that tells them apart may be missing. Equal entries are not always repeated. Entries after “also recorded” stand apart in the source; their conditions may differ. Where two headings read alike, the source gives them in different places.

The subject of assay [1] is vancomycin-resistant Enterococcus faecalis (ATCC 700802). The format is cell-based. Particulars: MH medium.
Assay [2] deals with Nesseria meningitidis (No. 29332). Briefly: In vivo protection of mice infected by fatal dose of Nesseria meningitidis. The following applies: 1.5 mg/kg intravenous 1 hour after intraperitoneal fatal dose; for survival rate in 8 days: 10 mice per group. As to the method:
The mice were given an intraperitoneal injection of glucose solution of ferrous by 20 mg/kg, and 1 hour later an intraperitoneal injection of 0.5 ml of bacteria culture containing 1 share of Nesseria meningitidis cultrue solution (its CFU was 2.36×10^9/ml) and 1.5 share of 5% dry yeast solution. One hour later after being given intraperitoneal injection of fatal dose of the bacteria culture, the mice in experimental group were given an intravenous injection of the drugs and the mice in control group were given an intravenous injection of normal saline, all drugs were injected by 1.5 mg/kg), observation every 2 hours for 8 days, the death of mice as the positive results.

The subject of assay [3] is multi-drug resistant Pseudomonas aeruginosa (isolated by West China Hospital, No. 13578). Nature of the assay: Minimum inhibitory concentration by agar dilution method. It counts as cell-based. Particulars: for MIC in terms of molecular weight standard: Embodiment 3, converted from μg/ml; for MIC: MH medium. For orientation: Agar dilution tests growth on a series of plates holding different concentrations.

Assay [4] deals with Nesseria meningitidis (No. 29332). The assay is described as above. The format is cell-based. Particulars: Embodiment 4, FIG. 6A, blood-chocolate medium with Columbia blood agar base.
The test system of assay [5] is methicillin-resistant Staphylococcus aureus (ATCC BAA-42). The assay is described as above. It counts as cell-based.
The test system of assay [6] is Mycobacterium tuberculosis (the standard strains H37RV). Nature of the assay: In vivo protection of mice infected by Mycobacterium tuberculosis. On the set-up: species or system BalB/c mice. The following applies: for weight of mice during experiment: during 5 weeks treatment; for lung by microscope (pathological section): 5 weeks treatment, magnification 200, FIG. 11.

In assay [7] the test system is Nesseria meningitidis strain No. 29332. Nature of the assay: Inhibiting effect on growth of Nesseria meningitidis in liquid culture (growth curve, optical density). It counts as cell-based. Particulars: 5 and 10 μg/ml, rabbit blood-chocolate medium, 37° C., hourly A595 nm, FIG. 4. The protocol:
The bacteria was strain No. 29332 Nesseria meningitidis (No. 29332 of bacteria Preservation Center in China, i.e. Center of Medical Devices of National Institute for the Control of Pharmaceutical & biological Products, SDA), two microlitres (μl) of bacteria solution (10^5 CFU/ml) was added in 10 ml rabbit blood-chocolate medium containing 50 mg beef extract, 100 mg tryptone, 50 mg NaCl, 30 mg K2HPO4 and 0.5-0.8 ml off fiber rabbit blood. Five groups were prepared. The first group was added 0.3 M NaCl+50 mM boric acid buffer fluid (i.e. blank preservative fluid for the novel antibiotic, by the same volume with the novel antibiotic solution in the group 4 and 5) as control. Penicillin sodium was added in the second group by 5 μg/ml. The novel antibiotic PMC-AM1 was added in the third group by 5 μg/ml. The novel antibiotic PMC-AM2 was added in the forth group by 5 μg/ml. The novel antibiotic PMC-AM1 was added in the fifth group by 10 μg/ml.
Reactant liquid of the above five groups were respectively put into 100 ml conical flask, and cultured at 37° C. by 200 rpm 100 μl culture solution was sampled per hour and added onto 96-pore ELISA plate for measuring bacteria grown cloudiness by spectrophotometer (A595 nm) color comparison. The bacteria-growth curve was drawn up to compare the bacteriostasis efficacy of novel antibiosis.

Setting [8] is: Pseudomonas aeruginosa, Embodiment 3, agar dilution, 37° C. 18-24 hours, FIG. 5, read-out: MIC.
Setting [9] is: Embodiment 4, FIG. 6C, BM medium.
The mark [10] stands for this setting: Embodiment 3, agar dilution, 37° C. 18-24 hours, FIG. 5.
Setting [11] is: Embodiment 5, FIG. 7B, MH medium.

In the case of `CN[C@H](CC(C)C)C(=O)N[C@H]1C(=O)N[C@@H](CC(N)=O)C(=O)N[C@H]2C(=O)N[C@H]3C(=O)N[C@H](C(=O)N[C@H](C(=O)O)c4cc(O)cc(O)c4-c4cc3ccc4O)[C@H](O)c3ccc(c(Cl)c3)Oc3cc2cc(c3O[C@@H]2O[C@H](CO)[C@@H](O)[C@H](O)[C@H]2O[C@H]2C[C@](C)(N)[C@H](O)[C@H](C)O2)Oc2ccc(cc2Cl)[C@H]1O` [vancomycin, reference compound], the MIC in assay [1] (Embodiment 4, FIG. 6B) came to 21.54 nmol.

For the molecule penicillin, the “death of mice (survival outcome in words)” value in assay [2] was “all died in two days”.

As for `CC(C)(O/N=C(\C(=O)N[C@@H]1C(=O)N2C(C(=O)[O-])=C(C[n+]3ccccc3)CS[C@H]12)c1csc(N)n1)C(=O)O` [ceftazidime], the “MIC in terms of molecular weight standard” value (“MIC in terms” below) in assay [3] came out at 29.3 nmol. The MIC in assay [3] (Embodiment 4, FIG. 6D) was 29.3 nmol; in assay [3] (setting [8]) it was 16 µg/mL (≈ 29.3 µM); in assay [4], 3.02 nmol.

For `Cc1onc(-c2ccccc2)c1C(=O)N[C@@H]1C(=O)N2[C@@H]1SC(C)(C)[C@@H]2C(=O)O` [oxacillin, reference compound], the MIC in assay [5] (setting [9]) was 14.1 nmol.

As to `NNC(=O)c1ccncc1` [isoniazid, reference compound], in assay [6], the “weight of mice during experiment” value is “rise”.

As to gentamicin, in assay [2], the “survival rate in 8 days” value is 50%. The MIC result is “greater than 512 μg/ml” in assay [3] (setting [10]) and more than 889.4 nmol in assay [3] (Embodiment 4, FIG. 6D). In addition, in assay [3], the “MIC in terms” value is given as “greater than 890 nMol”.

For `CC1(C)S[C@@H]2[C@H](NC(=O)[C@H](N)c3ccccc3)C(=O)N2[C@H]1C(=O)O` [ampicillin, reference compound], the MIC in assay [5] (setting [9]) came out at 21.55 nmol; in assay [1] (Embodiment 4, FIG. 6B) it was 10.78 nmol; in assay [4] it was 1.35 nmol.

In the case of `C[C@H]1COc2c(N3CCN(C)CC3)c(F)cc3c(=O)c(C(=O)O)cn1c23` [levofloxacin], the “MIC in terms” value in assay [3] is 43.2 nmol. Besides, the MIC in assay [3] (Embodiment 4, FIG. 6D) is 43.2 nmol; in assay [3] (setting [8]), 8 µg/mL (≈ 22.1 µM).

B1: PMC-AM1: Fusion of antibody mimetic AM1 (VHCDR1-VHFR2-VLCDR3, Seq ID No.2) to C-terminus of Colicin Ia; Seq ID No.6 (protein)
chain: SDPVRITNPGAESLGYDSDGHEIMAVDIYVNPPRVDVFHGTPPAWSSFGNKTIWGGNEWVDDSPTRSDIEKRDKEITAYKNTLSAQQKENENKRTEAGKRLSAAIAAREKDENTLKTLRAGNADAADITRQEFRLLQAELREYGFRTEIAGYDALRLHTESRMLFADADSLRISPREARSLIEQAEKRQKDAQNADKKAADMLAEYERRKGILDTRLSELEKNGGAALAVLDAQQARLLGQQTRNDRAISEARNKLSSVTESLNTARNALTRAEQQLTQQKNTPDGKTIVSPEKFPGRSSTNHSIVVSGDPRFAGTIKITTSAVIDNRANLNYLLSHSGLDYKRNILNDRNPVVTEDVEGDKKIYNAEVAEWDKLRQRLLDARNKITSAESAVNSARNNLSARTNEQKHANDALNALLKEKENIRNQLSGINQKIAEEKRKQDELKATKDAINFTTEFLKSVSEKYGAKAEQLAREMAGQAKGKKIRNVEEALKTYEKYRADINKKINAKDRAAIAAALESVKLSDISSNLNRFSRGLGYAGKFTSLADWITEFGKAVRTENWRPLFVKTETIIAGNAATALVALVFSILTGSALGIIGYGLLMAVTGALIDESLVEKANKFWGISYWLHWIKQRPGQGLWIGSQSTHVPRT
modifications: The amino acid sequence of antibiotic PMC-AM1
For B1, in assay [2], the “survival rate in 8 days” value stood at 90%. Besides, in assay [6], the “lung by microscope (pathological section)” value is listed as “intact but had a little of cellular infiltration in parts”. The “weight of mice during experiment” value in assay [6] is recorded as “rise”. In addition, in assay [6] (mouse, in vivo, ip), the “observation of the mice's lung (TB nodules, necrosis)” value is “intact, and had no nodules and necrosis of tuberculosis; also recorded: no TB nodules and necrosis”. The MIC in assay [5] (setting [9]) came out at 0.06 nmol; in assay [5] (setting [11]), 0.06 nmol; in assay [1] (Embodiment 4, FIG. 6B) it was 0.23 nmol; in assay [1] (Embodiment 5, FIG. 7A), 0.23 nmol; in assay [3] (setting [10]) it was 8 µg/mL; in assay [3] (Embodiment 4, FIG. 6D), 0.91 nmol. Also, the MIC in assay [3] (Embodiment 5, FIG. 7C) amounted to 0.23 nmol; in assay [4] it was 0.11 nmol. In addition, the “MIC in terms” value in assay [3] was determined as 0.23 nmol. Also, in assay [3] (Embodiment 3, ratio of molar MICs), the “antibacterial effect stronger than ceftazidime, levofloxacin and gentamicin” value is 127 to 3800 times and 127-3800 times. The “bacteria growth (bacteriostasis efficacy, growth curve)” value in assay [7] is on record as “can only be restrained by PMC-AM1”.

B2: Colicin Ia (protein, UniProt P06716 1-626, looked up)
Colicin-Ia: MSDPVRITNPGAESLGYDSDGHEIMAVDIYVNPPRVDVFHGTPPAWSSFGNKTIWGGNEWVDDSPTRSDIEKRDKEITAYKNTLSAQQKENENKRTEAGKRLSAAIAAREKDENTLKTLRAGNADAADITRQEFRLLQAELREYGFRTEIAGYDALRLHTESRMLFADADSLRISPREARSLIEQAEKRQKDAQNADKKAADMLAEYERRKGILDTRLSELEKNGGAALAVLDAQQARLLGQQTRNDRAISEARNKLSSVTESLNTARNALTRAEQQLTQQKNTPDGKTIVSPEKFPGRSSTNHSIVVSGDPRFAGTIKITTSAVIDNRANLNYLLSHSGLDYKRNILNDRNPVVTEDVEGDKKIYNAEVAEWDKLRQRLLDARNKITSAESAVNSARNNLSARTNEQKHANDALNALLKEKENIRNQLSGINQKIAEEKRKQDELKATKDAINFTTEFLKSVSEKYGAKAEQLAREMAGQAKGKKIRNVEEALKTYEKYRADINKKINAKDRAAIAAALESVKLSDISSNLNRFSRGLGYAGKFTSLADWITEFGKAVRTENWRPLFVKTETIIAGNAATALVALVFSILTGSALGIIGYGLLMAVTGALIDESLVEKANKFWGI
notes: Wild-type bacterial toxin secreted by E. coli forming ion channels
Consider B2, for which the “lung by microscope (pathological section)” value in assay [6] was “the injury was little slighter than the control mouse's”. Moreover, the “mice died before sacrifice (from the forth week)” value in assay [6] (mouse, in vivo) worked out at 1 mouse. In addition, the MIC was found to be 0.23 nmol in assay [5] (setting [11]); 0.91 nmol in assay [1] (Embodiment 5, FIG. 7A); 0.91 nmol in assay [3] (Embodiment 5, FIG. 7C).

For the origin of these results see US9073989B2, “Antibiotic comprising an antibody mimetic, its preparation methods and uses thereof” (PROTEIN DESIGN LAB, LTD, priority 2011, dated 2015).
